Source: article PMC2847220 (Nucleic Acids Research, 2009)

Molecular target: the molecule itself
Assay: AUC

B1: Tpa1Δ20, N-terminal truncated form (residues 21–644) of S. cerevisiae Tpa1 (domain or fragment, UniProt P40032 21-644, looked up)
chain: LEEDKIKGMFNPKIWDKTFQDGLKKEIEDSQPYNWGTIHELVNDDLLRAVRKEIETEIHFTKKETDIYRVNQSGDLANLSGLDWDDLSRLPNLFKLRQILYSKQYRDFFGYVTKAGKLSGSKTDMSINTYTKGCHLLTHDDVIGSRRISFILYLPDPDRKWKSHYGGGLRLFPSILPNVPHSDPSAKLVPQFNQIAFFKVLPGFSFHDVEEVKVDKHRLSIQGWYHIPQVGEEGYIPGEEEAWVRNNTSTLAQIESNVLEDFEFPKDERNILSFHEVKHFEKMLKGDAGAKTDNTPKESMTSVISDSVKLSEAEFTYLSQYISPEHLSSKGIEKLQKQFVENSSLQIESFLNDDKSELLKKVIKQKELEQECPYHSKDVKAPWKTAIPPHKARYLYIDGKEYRNFQTEADILEALNNNDLPNFQFTKDAIKIISDASGNSRENNFDAELALIDLAVFHKSTIFKKYLALLTSLCPVSEQILIRRFRPGMDFTLATKCRFNELLKSNPDIIDAVLEGTLCLTPSAGWESGELGGYELYMMDDDEDNKQYLKEDVEDASVYRADDSGDSVLINDPPAWNTFNLVLRDESVLEFVKYVSWSAKSSRWDVKMKWDVKSCDEDGQEDEA
  stoichiometry N: 2
